The record followed here is the supplement of paper PMC11316812.

For one data set, the system named is MCF7. Briefly: percentage of EdU-negative (G0-arrested) nuclei per well, 72 h; higher = more G0 arrest. Conditions: reference: sequence is the full UniProt precursor, the tested protein was the secreted form or ectodomain.
For another data set, the system named is hTERT-HMEC. The data set is described as above. Conditions: reference: sequence is the full UniProt precursor, the tested protein was the secreted form or ectodomain.
Setting [1] is: protein concentration 0.022665 µM.
The mark [2] stands for this setting: protein concentration 0.03125 µM.
Where [3] appears, read: protein concentration 0.22665 µM.
Setting [4] is: protein concentration 0.3125 µM.
Setting [5] is: protein concentration 0.0225 µM.
Setting [6] is: protein concentration 0.0357143 µM.
The mark [7] stands for this setting: protein concentration 0.357143 µM.
[8] abbreviates: protein concentration 0.0171429 µM.
Where [9] appears, read: protein concentration 0.171429 µM.

± gives the standard deviation of the averaged measurements.
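Note: secreted proteins added to cultured cells, EdU pulse at the end, nuclei found by Hoechst imaging, EdU status from nuclear versus surrounding ring intensity ratio, PBS as neutral control.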

As to “MRSAAVLALLLCAGQVTALPVNSPMNKGDTEVMKCIVEVISDTLSKPSPMPVSQECFETLRGDERILSILRHQNLLKELQDLALQGAKERAHQQKKHSGFEDELSEVLENQSSQAELKEAVEEPSSKDVMEKREDSKEAEKSGEATDGARPQALPEPMQESKAEGNNQAPGEEEEEEEEATNTHPPASLPSQKYPGPQAEGDSEGLSQGLVDREKGLSAEPGWQAKREEEEEEEEEAEAGEEAVPEEEGPTVVLNPHPSLGYKEIRKGESRSEALAVDGAGKPGAEEAQDPEGKGEQEHSQQKEEEEEMAVVPQGLFRGGKSGELEQEEERLSKEWEDSKRWSKMDQLAKELTAEKRLEGQEEEEDNRDSSMKLSFRARAYGFRGPGPQLRRGWRPSSREDSLEAGLPLQVRGYPEEKKEEEGSANRRPEDQELESLSAIEAELEKVAHQLQALRRG”, the “percentage of EdU-negative” value with MCF7 (setting [1]) came out at 24.2 ± 2.3%; in the data set on MCF7 (setting [2]) it was 26.2 ± 1.6%; with MCF7 (setting [3]), 24.9 ± 1.5%; in the data set on MCF7 (setting [4]) it was 25.6 ± 1.5%; in the data set on hTERT-HMEC (setting [1]), 4.31 ± 0.57%; in the data set on hTERT-HMEC (setting [2]), 5.57 ± 0.62%. The “percentage of EdU-negative” value in the data set on hTERT-HMEC (setting [3]) turned out to be 7.26 ± 0.12%; with hTERT-HMEC (setting [4]), 5.39 ± 0.89%.

Consider “MQRVSGLLSWTLSRVLWLSGLSEPGAARQPRIMEEKALEVYDLIRTIRDPEKPNTLEELEVVSESCVEVQEINEEEYLVIIRFTPTVPHCSLATLIGLCLRVKLQRCLPFKHKLEIYISEGTHSTEEDINKQINDKERVAAAMENPNLREIVEQCVLEPD [Q9H5X1]”, for which the “percentage of EdU-negative” value with MCF7 (setting [5]) stood at 24.6 ± 0.36%; in the data set on MCF7 (protein concentration 0.225 µM), 26.4 ± 0.66%; in the data set on hTERT-HMEC (setting [5]), 5.26 ± 0.84%; with hTERT-HMEC (protein concentration 0.225 µM), 5.56 ± 0.12%.

As for “MTGLCGYSAPDMRGLRLIMIPVELLLCYLLLHPVDATSYGKQTNVLMHFPLSLESQTPSSDPLSCQFLHPKSLPGFSHMAPLPKFLVSLALRNALEEAGCQADVWALQLQLYRQGGVNATQVLIQHLRGLQKGRSTERNVSVEALASALQLLAREQQSTGRVGRSLPTEDCENEKEQAVHNVVQLLPGVGTFYNLGTALYYATQNCLGKARERGRDGAIDLGYDLLMTMAGMSGGPMGLAISAALKPALRSGVQQLIQYYQDQKDANISQPETTKEGLRAISDVSDLEETTTLASFISEVVSSAPYWGWAIIKSYDLDPGAGSLEI”, the “percentage of EdU-negative” value was found to be 26.5 ± 0.29% in the data set on MCF7 (setting [5]), 30.7 ± 0.48% with MCF7 (protein concentration 0.225 µM), 5.166 ± 0.011% with hTERT-HMEC (setting [5]) and 19.7 ± 0.93% with hTERT-HMEC (protein concentration 0.225 µM).

Take “MKVSVAALSCLMLVAVLGSQAQFTNDAETELMMSKLPLENPVVLNSFHFAADCCTSYISQSIPCSLMKSYFETSSECSKPGVIFLTKKGRQVCAKPSGPGVQDCMKKLKPYSI”: the “percentage of EdU-negative” value with MCF7 (setting [6]) worked out at 24.9 ± 0.52%; in the data set on MCF7 (setting [7]), 25.2 ± 0.81%; with hTERT-HMEC (setting [6]), 4.77 ± 0.69%; in the data set on hTERT-HMEC (setting [7]) it was 4.52 ± 1.2%.

For the sequence “MIFPWKCQSTQRDLWNIFKLWGWTMLCCDFLAHHGTDCWTYHYSEKPMNWQRARRFCRDNYTDLVAIQNKAEIEYLEKTLPFSRSYYWIGIRKIGGIWTWVGTNKSLTEEAENWGDGEPNNKKNKEDCVEIYIKRNKDAGKWNDDACHKLKAALCYTASCQPWSCSGHGECVEIINNYTCNCDVGYYGPQCQFVIQCEPLEAPELGTMDCTHPLGNFSFSSQCAFSCSEGTNLTGIEETTCGPFGNWSSPEPTCQVIQCEPLSAPDLGIMNCSHPLASFSFTSACTFICSEGTELIGKKKTICESSGIWSNPSPICQKLDKSFSMIKEGDYNPLFIPVAVMVTAFSGLAFIIWLARRLKKGKKSKRSMNDPY”, the “percentage of EdU-negative” value with MCF7 (setting [5]) amounted to 24.2 ± 0.78%; with MCF7 (protein concentration 0.225 µM), 32.8 ± 4%; in the data set with hTERT-HMEC (setting [5]) it was 4.92 ± 0.1%; in the data set with hTERT-HMEC (protein concentration 0.225 µM) it was 11.1 ± 1.2%.

With “MTSHYVIAIFALMSSCLATAGPEPGALCELSPVSASHPVQALMESFTVLSGCASRGTTGLPQEVHVLNLRTAGQGPGQLQREVTLHLNPISSVHIHHKSVVFLLNSPHPLVWHLKTERLATGVSRLFLVSEGSVVQFSSANFSLTAETEERNFPHGNEHLLNWARKEYGAVTSFTELKIARNIYIKVGEDQVFPPKCNIGKNFLSLNYLAEYLQPKAAEGCVMSSQPQNEEVHIIELITPNSNPYSAFQVDITIDIRPSQEDLEVVKNLILILKCKKSVNWVIKSFDVKGSLKIIAPNSIGFGKESERSMTMTKSIRDDIPSTQGNLVKWALDNGYSPITSYTMAPVANRFHLRLENNAEEMGDEEVHTIPPELRILLDPGALPALQNPPIRGGEGQNGGLPFPFPDISRRVWNEEGEDGLPRPKDPVIPSIQLFPGLREPEEVQGSVDIALSVKCDNEKMIVAVEKDSFQASGYSGMDVTLLDPTCKAKMNGTHFVLESPLNGCGTRPRWSALDGVVYYNSIVIQVPALGDSSGWPDGYEDLESGDNGFPGDMDEGDASLFTRPEIVVFNCSLQQVRNPSSFQEQPHGNITFNMELYNTDLFLVPSQGVFSVPENGHVYVEVSVTKAEQELGFAIQTCFISPYSNPDRMSHYTIIENICPKDESVKFYSPKRVHFPIPQADMDKKRFSFVFKPVFNTSLLFLQCELTLCTKMEKHPQKLPKCVPPDEACTSLDASIIWAMMQNKKTFTKPLAVIHHEAESKEKGPSMKEPNPISPPIFHGLDTLTVMGIAFAAFVIGALLTGALWYIYSHTGETAGRQQVPTSPPASENSSAAHSIGSTQSTPCSSSSTA”, the “percentage of EdU-negative” value in the data set with MCF7 (setting [8]) was 24.6 ± 1.9%; in the data set on MCF7 (setting [9]) it was 23.7 ± 2.4%; in the data set with hTERT-HMEC (setting [8]), 4.94 ± 0.63%; in the data set on hTERT-HMEC (setting [9]), 5.484 ± 0.021%.
